In patent publication US20220306690A1 (CURATORS OF THE UNIVERSITY OF MISSOURI, published 2022):

How the values were obtained:
[1] = target: T1, HIV-1 capsid protein (CA) hexamer (HIV-1, UniProt O12157 131-361, fluorescently labeled with Alexa Fluor 647 analog NT647 (site of labeling not stated)); experiment: MicroScale Thermophoresis; Kd of Pep-2-cyclic (32 nM) against Kd of small molecule PF74 ([…] nM) on CA-hexamers
T1 construct: also called CA-hexamers

[2] = target: T1, HIV-1 capsid protein (CA) hexamer; experiment: MicroScale Thermophoresis (MST), 200 nM NT647-labelled CA-hexamers, Pep-2-cyclic titrated 1 nM to 2000 nM [B panel A]
[3] = target: T1, HIV-1 capsid protein (CA) hexamer; experiment: MicroScale Thermophoresis; 200 nM NT647-labeled CA-hexamers, Pep-2-cyclic titrated 1 nM to 2000 nM; fit to quadratic equation

B1: Pep-2-cyclic: Cyc(SGVFTFGPVNFPG) (peptide)
peptide: SGVFTFGPVNFPG
modifications: head-to-tail cyclic: cyclized by coupling the C-terminal carboxylic acid and the N-terminal amino group
- fold greater affinity than PF74 [1]: ~7 fold
- EC50 (read off the curve) [2]: ~70 nM
- Kd [3]: 32 nM
